Earlier results in article PMC9836085.

Assays:
[1] = target: Rab6 (Drosophila melanogaster) (UniProt O18334)
[2] = target: Sas6 (Drosophila melanogaster) (UniProt Q9VAC8)
UniProt Q9VAC8, sequence (Q9VAC8 whole entry): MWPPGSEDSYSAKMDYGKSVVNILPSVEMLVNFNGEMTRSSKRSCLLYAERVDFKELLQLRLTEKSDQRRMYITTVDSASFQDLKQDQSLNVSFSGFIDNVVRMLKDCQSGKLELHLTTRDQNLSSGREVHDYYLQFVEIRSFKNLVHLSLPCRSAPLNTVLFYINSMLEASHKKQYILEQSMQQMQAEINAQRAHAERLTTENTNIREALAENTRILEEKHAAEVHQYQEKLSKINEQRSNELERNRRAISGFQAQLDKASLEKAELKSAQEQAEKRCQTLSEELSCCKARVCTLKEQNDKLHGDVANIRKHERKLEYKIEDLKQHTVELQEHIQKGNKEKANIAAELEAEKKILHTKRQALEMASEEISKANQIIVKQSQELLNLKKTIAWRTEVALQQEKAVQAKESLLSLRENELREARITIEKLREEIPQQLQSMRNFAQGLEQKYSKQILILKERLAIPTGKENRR

UniProt O18334, sequence (O18334 whole entry): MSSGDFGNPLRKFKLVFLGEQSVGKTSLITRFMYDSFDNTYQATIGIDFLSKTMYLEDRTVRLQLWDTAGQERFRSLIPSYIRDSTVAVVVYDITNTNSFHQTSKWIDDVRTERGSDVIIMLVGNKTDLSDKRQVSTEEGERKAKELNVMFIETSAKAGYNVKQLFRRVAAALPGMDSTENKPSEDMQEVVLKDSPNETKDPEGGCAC

Kd [1]: 2240 nM | Kd [2]: 47 nM
Substance: Gorab (from UniProt Q8IQQ4)
